Here are results for 1 substance from PMC12617615, “Decoding substrate recognition in malapain-2 through structural and mutational insights” (Computational and Structural Biotechnology Journal, 2025).

Series [1] has as its system Cc1cc(=O)oc2cc(NC(=O)[C@H](CCCNC(=N)N)NC(=O)[C@H](CC(C)C)NC(=O)OCc3ccccc3)ccc12. In words: purified protein. The conditions noted are these: 100 mM sodium acetate pH 5.0, 10 mM DTT, 37 °C, 20 nM enzyme, substrate range 0.1–100 μM.
Text: (§1) fluorogenic AMC release, Michaelis-Menten on malapain-2 (MP-2)
The test system of series [2] is Cc1cc(=O)oc2cc(NC(=O)[C@H](CCCNC(=N)N)NC(=O)[C@H](CCCNC(=N)N)NC(=O)OCc3ccccc3)ccc12. In words: purified protein. The conditions noted are these: 100 mM sodium acetate pH 5.0, 10 mM DTT, 37 °C, 20 nM enzyme, substrate range 0.1–100 μM.
Text: as §1

Turning to malapain-2 (MP-2) (Plasmodium malariae), the Km was found to be 111.2 ± 1.2 µM in series [1] and 846.4 ± 0.6 µM in series [2].

The Km is the substrate concentration at which the rate is half of its maximum.
